Results reported in the DeepSol protein solubility set.

Assay: soluble on expression in E. coli; label from the status in PepcDB or PDB records

| Sequence | soluble on expression in E. coli |
| --- | --- |
| MGHHHHHHGSSIETDRVSKEFIEFLKTFHKTGQEIYKQTKLFLEGMHYKRDLSIEEQSECAQDFYHNVAERMQTRGKVPPERVEKIMDQIEKYIMTRLYKYVFCPETTDDEKKDLAIQKRIRALRWVTPQMLCVPVNEDIPEVSDMVVKAITDIIEMDSKRVPRDKLACITKCSKHIFNAIKITKNEPASADDFLPTLIYIVLKGNPPRLQSNIQYITRFCNPSRLMTGEDGYYFTNLCCAVAFIEKLDAQSLNLSQEDFDRYMSGQTSPRKQ | soluble |
| MGHHHHHHHHHHSSGHIDDDDLHMDMHSGTFNPQDFAWQGLTLTPAAAIHIRELVAKQPGMVGVRLGVKQTGCAGFGYVLDSVSEPDKDDLLFEHDGAKLFVPLQAMPFIDGTEVDFVREGLNQIFKFHNPKAQNECGCGESFGV | soluble |
| MGHHHHHHSHANCAENEEGCTPLHLACRKGDGEILVELVQYCHTQMDVTDYKGETVFHYAVQGDNSQVLQLLGRNAVAGLNQVNNQGLTPLHLACQLGKQEMVRVLLLCNARCNIMGPNGYPIHSAMKFSQKGCAEMIISMDSSQIHSKDPRYGASPLHWAKNAEMARMLLKRGCNVNSTSSAGNTALHVAVMRNRFDCAIVLLTHGANADARGEHGNTPLHLAMSKDNVEMIKALIVFGAEVDTPNDFGETPTFLASKIGRLVTRKAILTLLRTVGAEYCFPPIHGVPAEQGSAA | not soluble |
| MGHHHHHHSHEWGTVQLRGSWRVGQTAGGSRNFASYPTNPCFPFSVPEGPGPRCVRITLHQHCRPSDTEFHPIGFHIFQVPEGGRSQDAPPLLLQEPLLSCVPHRYAQEVSRLCLLPAGTYKVVPSTYLPDTEGAFTVTIATRIDRPSIHSQEMLGQFLQEVSVMAVMKT | not soluble |
| MGHHHHHHSHIAELYGAVLWGETVHLFMEAGEGGSVLEKLESCGPMREFEIIWVTKHVLKGLDFLHSKKVIHHDIKPSNIVFMSTKAVLVDFGLSVQMTEDVYFPKDLRGTEIYMSPEVILCRGHSTKADIYSLGATLIHMQTGTPPWVKRYPRSAYPSYLYIIHKQAPPLEDIADDCSPGMRELIEASLER | not soluble |
| MGHHHHHHSHKCNAGFFHTLSGECVPCDCNGNSNECLDGSGYCVTTDGEDPGFSASALSFILSSQGAREARAPT | not soluble |
| MGHHHHHHSHKPIKVEKTVTINKPADELYRYWHNFENLPTFMKHLKSVKVYNEKRSHWIANAPLGNSVEWDADILEDRENEFISWASAEGADVENSGFVRFQKAPGDVPGQAASRLRGTEVKVVLEYNLPGGALAAVVAKLFGEEP | not soluble |
| MGHHHHHHSHLSPEPPVYSLQDFDTLATVGTGTFGRVHLVKEKTAKHFFALKVMSIPDVIRLKQEQHVHNEKSVLKEVSHPFLIRLFWTWHDERFLYMLMEYVPGGELFSYLRNRGRFSSTTGLFYSAEIICAIEYLHSKEIVYRDLKPENILLDRDGHIKLTDFGFAKKLVDRTWTLCGTPEYLAPEVIQSKGHGRAVDWWALGILIFEMLSGFPPFFDDNPFGIYQKILAGKIDFPRHLDFHVKDLIKKLLVVDRTRRLGNMKNGANDVKHHRWFRSVDWEAVPQRKLKPPIVPKIAGDGDTSNFET | not soluble |
| MGHHHHHHSHMAAVDIRDNLLGISWVDSSWIPILNSGSVLDYFSERSNPFYDRTCNNEVVKMQRLTLEHLNQMVGIEYILLHAQEPILFIIRKQQRQSPAQVIPLADYYIIAGVIYQAPDLGSVINSRVLTAVHGIQSAFDEAMSYCRYHPSKGYWWHFKDHEEQDKVRPKAKRKEEPSSIFQRQRVDALLLDLRQKFPPKFVQLKPGEKPVPVDQTKKEAEPIPETVKPEEKETTKNVQQTVSAKGPPEKRMRLQ | soluble |
| MGHHHHHHSHMACYIYQLPSWVLDDLCRNMDALSEWDWMEFASYVITDLTQLRKIKSMERVQGVSITRELLWWWGMRQATVQQLVDLLCRLELYRAAQIILNWKPAPEIRCPIPAFPDSVK | soluble |
| MGHHHHHHSHMADTLAILNEFLLERSKREAEEENQIANKTGKDAQFEEDWQLSQFWYSTETKHALRDVVRKLLAERTKDSGDFSIALLSCPSLYKDIREIHDTVHIFEFDKRFEAYGTDFVHYDLNCVGSNPDYLKEHHQQYDLIVADPPF | soluble |
| MGHHHHHHSHMAGLQRLASHLPVGVMLPHNTTEAPGPHSAKQDSYEQGDSSQQSLKGHLRNNFQKQLLSNKELILDKVYTHPKWNTQTKARSYSYPHCTGISQQDPESDSQGQGNGLFYSSGPQSWYPKANNQDFIPFTKKRVGVDRAFPLKPMVHRKSCSTGEAGTDGDHNVYPRPPEPREFSSRNFGVRNQGNFSVVGTVLAATQAEKAVANFDRTEWVQIRRLEAAGESLEEEIRRKQILLRGS | not soluble |
| MGHHHHHHSHMANSAGSMANSAGSMPPLSTIDPSGTRSKNMPIKDNALVMFNGKVYLLAKKGTDVLPSQIDQQNSVSPDTPVRKDTLQTVSSSPVTEISREVVNIVLAKSKSSQMETKSLSNTQLASMANLRAEKNKVEKPSPSTTNPHMNQSSNYLKQSKTLFTNPIFPVGFSTGHNAPRKVTAVIYARKGSVLQSIEKISSSVDATTVTSQQCVFRDQEPKIHNEMASTSDKGAQGRNDKKDSQGRSNKALHLKSDAEFKKIFGLTKDLRVCLTRIPDHLTSGEGFDSFSSLVKSGTYKETEFMVKEGERKQQNFDKKRKAKTNKKMDHIKKRKTENAYNAIINGEANVTGSQLQYFTNFRCVTT | not soluble |
| MGHHHHHHSHMANSAGSMANSAGSSWHNDHNFSVSKQPNLVVHNHTVTVPEGETVKGDVTVKNGKLIIKGKIDGDVTVVNGEKYMASAGQVTGQIEEINQLFDWTWYKMKSAGKSVLDAFNPNGEE | not soluble |
| MGHHHHHHSHMASVSSATFSGHGARSLLQFLRLVGQLKRVPRTGWVYRNVQRPESVSDHMYRMAVMAMVIKDDRLNKDPEAMKQITQLLPEDLRKELYELWEEYETQSSAEAKFVKQLDQCEMILQASEYEDLEHKPGRLQDFYDSTAGKFNHPEIVQLVSELEAERSTNIAAAASEPHS | soluble |
| MGHHHHHHSHMATSATSPHAPGFPAEGRCGYYVEKKKRFCRMVVAAGKRFCGEHAGAAEEEDARKRILCPLDPKHTVYEDQLAKHLKKCNSREKPKPDFYIQDINAGLRDETEIPEQLVPISSLSEEQLEKLIKKLRKASEGLNSTLKDHIMSHPALHDALNDPKNGDSATKHLKQQVCLGYSNY | not soluble |
| MGHHHHHHSHMAVGTSALSKEPWWTLPENFHSPMVFHMEEDQEELIFGLDDTYLRCIELHSHTLIQLERCFTATGQTRVTVVGPPMAKQWLLLMFHCVGSQDSKCHARGLKMLERVRSQPLTNDDLVTSVSLPPYTGD | not soluble |
| MGHHHHHHSHMDLDSGDVKRRVHLFETQRRTKEEDPIIPFSDGPIISKWGAISRSSRTGYHTTDPVQATASQGSATKPISVSDYVPYVNAVDSRWSSYGNEATSSAHYVERDRFIVTDLSGHRKHSSTGDLLSLELQQAKSNSLLLQREANALAMQQKWNSLDEGRHLTLNLLSKEIELRNGEVKKLNLSASCLMYLFSAAASWLYHY | not soluble |
| MGHHHHHHSHMEIPPTNYPASRAALVAQNYINYQQGTPHRVFEVQKVKQASMEDIPGRGHKYHLKFAVEEIIQKQVKVNCTAEVLYPSTGQETAPEVNFTFEGETGKNPDEEDNTFYQRLKSMKEPLEAQNIPDNFGNVSPEMTLVLHLAWVACGYIIWQNSTEDTWYKMVKIQTVKQVQRNDDFIELDYTILLHNIASQEIIPWQMQVLWHPQYGTKVKHNSRLPKEVQLE | not soluble |
| MGHHHHHHSHMEPRVTQRKRPLDGCMGKITGITSDILKYDHKCFKLSLPAKFPEVCGSDEVFPDPDLLHVLPVAGSLQQSIDQCCLQLESLCRPGLLCAHPTLLFKLHSSMKNRPFFSLIYTYVKKTQQVRKRDRKPRGQVAAGPNPTSVM | not soluble |
| MGHHHHHHSHMEQTEVLKPRTLADLIRILHQLFAGDEVNVEEVQAIMEAYESDPIEWAMYAKFDQYRYTRNLVDQGNGKFNLMILCWGEGHGSSIHDHTNSHCFLKMLQGNLKETLFAWPDKKSNEMVKKSERVLRENQCAYINDSIGLHRVENISHTEPAVSLHLYSPPFDTCHAFDQRTGHKNKVTMTFHSKFGIRTPNATSGSLENN | not soluble |
